Experimental findings from patent EP1900813A1, “NOVEL PHYSIOLOGICAL SUBSTANCE NESFATIN, SUBSTANCE RELEVANT THERETO, AND USE OF THE SUBSTANCES” (Teijin Pharma Limited, priority 2005, dated 2008) are described below.

No end group written: not given here.

Assay [1] has as its system nesfatin. In words: Specificity of immunohistochemical stain of rat hypothalamus with anti-nesfatin-1 antibody after pre-reaction with peptides. Type of assay: binding. Particulars: 5 µg peptide per 1 µg antibody. The procedure:
In a method similar to that in Working Example 4, immunohistochemical stain was carried out on tissue sections of the rat brain each containing arcuate nucleus and paraventricular nucleus, in which anti-nesfatin-1 antibody (nesfatin-1 IgG; Working Example 10) was used in stead of a anti-NAP polyclonal antibody as the primary antibody.

Assay [2] has as its system nesfatin. In words: Binding specificity of anti-nesfatin-1 antibody: Western blotting of rat brain extracts after pre-reaction with peptides. The settings on record: 5 µg peptide per 1 µg anti-nesfatin-1 antibody, room temperature, 1 hour. The procedure:
Western blotting analysis was carried out by the method described in Working Example 3 with the primary antibody being changed from anti-NAP polyclonal antibody to anti-nesfatin-1 antibody.
(Immunoblotting shows a protein as a band on a membrane.)

Assay [3] can be described thus: Single administration of nesfatin-1, nesfatin-2, nesfatin-3 or nesfatin-2/3 into the third ventricle, amount of food intake. Type of assay: in vivo, Wistar rats. The procedure: Samples used for intracerebral administration were PBS alone (vehicle group), or nesfatin-1, nesfatin-2, nesfatin-3 or nesfatin-2/3 prepared in Working Example 10 each dissolved in PBS, and 25 pmol was administered per individual into the third ventricle immediately before the dark period. Rats used were Wistar rats (purchased from Nippon SLC) and were housed as in Working Example 6, and among 8-9 week-old male Wistar rats, those individuals weighing 200-250 g were selected and used (N=5). The technique of intraventricular administration and the measurement of the amount of food intake in rats were carried out in a method similar to those in Workig Example 6. In the measurement of the amount of food intake, the reduced amount of food at 1 hour after administration (0-1 hr) and […] (1-3 hrs) was determined as food intake.
In the same condition above, 1, 5 or 25 pmol of nesfatin-1 as a sample was administered per rat individual into the third ventricle immediately before the dark period. In this experiment, the amount of food intake was determined at 1 hour after administration (0-1 hr).
The experimental condition was similar to that in Working Example 12, and 5 pmol of nesfatin-1 was administered into the third ventricle of the rat brain immediately before the start of the dark period, the amount decreased of the food (the amount of food intake) during 1 hour immediately after administration (0-1 hr), during 2 hours from 1 hour after the administration (1-3 hr), during 3 hours from 3 hours after the administration (3-6 hr), and during 6 hours from 6 hours after the administration (6-12 hr) was measured as the amount of food intake. As the control group, the amount of food intake by individuals that received physiological saline alone was measured.

Assay [4] is described as follows: Continuous intraventricular administration of nesfatin-1 by osmotic pump, amount of food intake and body weight. Type of assay: in vivo, Wistar rats. The settings on record: 5 pmol per day into the third ventricle, 10 consecutive days, vs physiological saline. The procedure: The administration of nesfatin-1 was carried out into the ventricle by an osmotic pump for 10 consecutive days. Among 8 week-old male Wistar rats (purchased from Nippon SLC), those individuals weighing 200-250 g were used. The rats received intraperitoneal administration of 40 mg/kg body weight of pentobarbital sodium for anesthesia. After the hair was removed from the head, they were fixed in a brain stereotaxic apparatus (David Kopf Instruments, Model 962) and the scalp was incised and a 23G needle (guide cannula) was implanted so that the tip reaches the third ventricle (2.5 mm behind the bregma, 9.5 mm from the surface). One week after implanting the guide cannula, the animals were subjected to the experiment. The osmotic pump used was Alzet's Model 2002. […] The measurement of the amount of food intake started from the day after the cannula and the osmotic pump were implanted, and the weight of the residual food was measured at 9 a.m. every day, and by determining the difference from the weight of the food on the previous day, the amount of food intake of the day (24 hours) was calculated. From day 6 after the start of administration, body weight was measured at the time of measuring the amount of food intake, and changes in body weight were also recorded.

A short description of assay [5]: Continuous administration of nesfatin-1 into the rat ventricle, weight of adipose tissues and muscle. It counts as in vivo. The settings on record: 5 pmol per day, third ventricle, osmotic pump, 10 days; vs physiological saline. The procedure: Nesfatin-1 (5 pmol per day) or physiological saline alone (the control group) was administered into the third ventricle of a rat using an osmotic pump for 10 consecutive days (5 and 4 rats were used per group). Intraventricular administration into rats by the osmotic pump was carried out in a manner similar to that in Working Example 13.
After the administration of nesfatin-1 or physiological saline alone for 10 days, each rat was sacrificed, dissected to excise all of the abdominal subcutaneous adipose tissue, the epididymal adipose tissue (these are white adipose tissue) and the retroperitoneal brown adipose tissue, and the weight of them was measured. Also, the gastrocnemial muscles of the bilateral hind legs were harvested and the weight of them was measured. From the weight of the tissues measured, their ratio to the body weight of each individual was determined (tissue weight/body weight, mg/g). For testing of significant difference, analysis of variance was used.

A short description of assay [6]: Intraventricular administration of nesfatin-1 alone or leptin alone, amount of food intake. It counts as in vivo, rat. The settings on record: 5 pmol nesfatin-1 alone, third ventricle; vs control group (physiological saline). As to the method:
The experimental condition was similar to that in Working Example 12, and for a group that received 5 pmol of nesfatin-1 alone into the third ventricle of the rat brain immediately before the start of the dark period and a group that received 5 pmol of nesfatin-1 and 8 µg of anti-nesfatin-1 antibody (nesfatin-1 IgG), the amount of food intake for 1 hour after administration was measured and compared to that for the control group (physiological saline alone was administered). Also, for a group that received only leptin (Rat leptin: R & D Systems, 598-LP-01M) (1 µg) which is known to have an activity of suppressing food intake by intraventricular administration and a group that received leptin and anti-nesfatin-1 antibody, its effect on food intake was also studied.

Setting [7] is: rat brain tissue containing the arcuate nucleus.
Setting [8] is: rat brain tissue section containing the paraventricular nucleus.

Consider “CART: Rat Cocaine- and Amphetamine-Regulated Transcript 55-102; Peptide Institute, Inc., 4351-s (IPIYEKKYGQVPMCDAGEQCAVRKGARIGKLCDCPRGTSCNSFLLKCL; ends and bridges not checked; cysteine pairing not given here)”, for which the “immunological stain with anti-nesfatin-1 antibody after pre-reaction with the peptide” value (shortened to “immunological stain”) in assay [1] (setting [7]) and in assay [1] (setting [8]) was “does not disappear” in each case.
Turning to “MCH: Human Melanin-Concentrating Hormone; Peptide Institute, Inc., 4369-v”, in assay [2], the “47.5 kd band of nesfatin in Western blotting after pre-reaction of anti-nesfatin-1 antibody with the peptide” value (“47.5 kd band of nesfatin” for short) is listed as “did not disappear”.
“NPY: Human, Rat Neuropeptide Y; Peptide Institute, Inc., 4158-v”: in assay [2], the “47.5 kd band of nesfatin” value is “did not disappear”. The “immunological stain” value in assay [1] (setting [7]) and in assay [1] (setting [8]) was “does not disappear” throughout.
For “Orexin-A: Human, Rat, Mouse, Bovine Orexin-A; Peptide Institute, Inc., 4346-s (QPLPDCCRQKTCSCRLYELLHGAGNHAAGILTL)”, the “47.5 kd band of nesfatin” value in assay [2] is listed as “did not disappear”.

B1: nesfatin-1: peptide of 82 residues, amino acid Nos. 25 to 106 of nesfatin; rat nesfatin-1 (SEQ ID NO: 15) by solid-phase synthesis (peptide, UniProt Q9JI85 25-106, looked up)
Nesfatin-1: VPIDVDKTKVHNVEPVESARIEPPDTGLYYDEYLKQVIEVLETDPHFREKLQKADIEEIRSGRLSQELDLVSHKVRTRLDEL
modifications: Nesfatin-1
For the molecule B1, the “amount of food intake” value in assay [3] (5 pmol, third ventricle, 0-1 hr, vs saline group (0)) was “significant decrerased amount of food intake”; in assay [3] (25 pmol into the third ventricle immediately before the dark period, 0-1 hr, vs control (PBS)) it was “marked effect on the suppression of feeding”; in assay [3] (25 pmol into the third ventricle immediately before the dark period, 1-3 hr, vs control (PBS)) it was “marked effect on the suppression of feeding”; in assay [3] (25 pmol, third ventricle, 0-1 hr, dose experiment, vs saline group (0)), “significant decrerased amount of food intake”; in assay [3] (1, 5 or 25 pmol per rat, third ventricle, 0-1 hr, dose relation vs saline group (0)), “decreased amount of food intake, with the increased amount of the administered nesfation-1”; in assay [3] (Working Example 27, 5 pmol, third ventricle, 0-1 hr, p<0.01 vs control), “Significant decreases in the amount of food intake”. Besides, the “amount of food intake” value is reported as “Significant decreases in the amount of food intake” in assay [3] (Working Example 27, 5 pmol, third ventricle, 1-3 hr, p<0.01 vs control); “Significant decreases in the amount of food intake” in assay [3] (Working Example 27, 5 pmol, third ventricle, 3-6 hr, p<0.01 vs control); “an increase in the amount of food intake” in assay [3] (Working Example 27, 5 pmol, third ventricle, 6-12 hr, p<0.01 vs control). Further, the “amount of food intake of the day (24 hours)” value in assay [4] is recorded as “decrease in the amount of food intake was noted from day 1”. For the same molecule, the “rate of increase in body weight” value in assay [4] is “significantly declined”. The “immunological stain” value in assay [1] (setting [7]) and in assay [1] (setting [8]) was “the stain disappears” each time. Besides, in assay [5], the “ratio of tissue weight to body weight, abdominal subcutaneous adipose tissue” value is on record as “significant decreases in the ratio of tissue weight to body weight”. For the same molecule, the “ratio of tissue weight to body weight, epididymal adipose tissue” value in assay [5] is “significant decreases in the ratio of tissue weight to body weight”. The “ratio of tissue weight to body weight, mesenteric adipose tissue” value in assay [5] is “significant decreases in the ratio of tissue weight to body weight”. Besides, the “ratio of tissue weight to body weight, retroperitoneal adipose tissue” value in assay [5] was “tended to decrease but no significant difference”. In addition, in assay [5], the “total tissue weight to the body weight, brown adipose tissue” value is on record as “no significant difference”. The “total tissue weight to the body weight, gastrocnemial muscle” value in assay [5] was “no significant difference”.

B2: recombinant nesfatin: recombinant matured mouse nesfatin (SEQ ID NO: 26) from E. coli GST-NEFA fusion protein treated with protease (protein)
chain: GSPIDVDKTKVHNTEPVENARIEPPDTGLYYDEYLKQVIEVLETDPHFREKLQKADIEEIRSGRLSQELDLVSHKVRTRLDELKRQEVGRLRMLIKAKLDALQDTGMNHHLLLKQFEHLNHQNPNTFESRDLDMLIKAATADLEQYDRTRHEEFKKYEMMKEHERREYLKTLSEEKRKEEESKFEEMKRKHEDHPKVNHPGSKDQLKEVWEETDGLDPNDFDPKTFFKLHDVNNDGFLDEQELEALFTRELEKVYNPQNAEDDMIEMEEERLRMREHVMSEIDNNKDRLVTLEEFLRATEKKEFLEPDSWETLDQQQLFTEDELKEYESIIAIQENELKKRAEELQKQKEDLQRQHDHLEAQKQEYHQAVQHLEQKKLQQGIAPSGPAGELKFEPHT
In the case of B2, in assay [6], the “amount of food intake for 1 hour after administration” value is given as “significantly decreased”.
